Publication PMC4238996 (PLoS Neglected Tropical Diseases, 2014)
Residue numbers refer to the chain shown, from its start.

T1: GST-tagged MupFHA (Mup018c, residues 1-362), wild type (M. ulcerans Agy99 (plasmid pMUM001), UniProt Q6MZ86 1-362)
T1 construct: also called MupFHA^wt; GST-MupFHA
T1 sequence: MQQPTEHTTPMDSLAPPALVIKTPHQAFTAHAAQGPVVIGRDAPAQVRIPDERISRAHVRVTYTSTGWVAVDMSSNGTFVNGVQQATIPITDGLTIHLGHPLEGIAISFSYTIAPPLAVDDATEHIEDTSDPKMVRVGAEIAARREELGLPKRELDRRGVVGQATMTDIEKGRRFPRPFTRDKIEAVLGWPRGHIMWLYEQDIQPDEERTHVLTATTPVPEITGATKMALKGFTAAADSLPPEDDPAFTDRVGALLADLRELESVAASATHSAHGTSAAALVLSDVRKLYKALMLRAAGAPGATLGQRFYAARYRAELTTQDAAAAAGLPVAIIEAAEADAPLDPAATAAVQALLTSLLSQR

B1: MBP-tagged MupDivIVA S43/45/49A triple mutant (natural protein)
chain: MSHSELLDPALPKSPFGKQGYRYDDVDVFLRLIADELQGSDLAEADIHAITFRCAAPLTRGYDTESVDRFLDRIAETIARGHGDEGQ
B2: MBP-tagged MupDivIVA-P (Mup012c residues 1-87, phosphorylated by co-expression with PknQ) (natural protein, M. ulcerans Agy99 (plasmid pMUM001), UniProt Q6MZ92 1-87, looked up)
chain: B1 chain with A43S, A45S, A49S
notes: also called phosphorylated MupDivIVA

Biological target: T1, GST-tagged MupFHA (Mup018c, residues …)
Assay: ELISA
Details: both partners purified

Binder	binding result
B1	binds
B2	binds
